This is an account of results in US20210180062.

Turning to “SynGAP α1 (isoform construct co-transfected in the small GTPase assay)”, the “GAP activity (reduction of GTP-bound small G protein, pull-down with effector-domain beads)” value in the data set with Ras was “SynGAP α1 and α2 has mild preference towards Ras rather than Rap”.

For “SynGAP α2 (isoform construct co-transfected in the small GTPase assay)”, in the data set with Ras, the “GAP activity (reduction of GTP-bound small G protein, pull-down with effector-domain beads)” value was “SynGAP α1 and α2 has mild preference towards Ras rather than Rap”.

As to “SynGAP β (isoform construct co-transfected in the small GTPase assay)”, the “GAP activity (reduction of GTP-bound small G protein, pull-down with effector-domain beads)” value with Rac1 and in the data set with Ras was “SynGAP β generally has highest GAP activity into all small G proteins among other isoforms” each time.

For “SynGAP γ (isoform construct co-transfected in the small GTPase assay)”, the “GAP activity (reduction of GTP-bound small G protein, pull-down with effector-domain beads)” value with Rap1 was “SynGAP β and γ has mild preference towards Rap1”.
